One experiment has as its target BRD2 (human, UniProt P25440 1-801, limits assumed). Description: proximity biotinylation in HEK293T cells treated with the PROTAC KB02-JQ1 (10 uM), with or without MG132; recruitment induced by the small molecule.
In the next experiment the target is BRD3 (human, UniProt Q15059 2-726, limits assumed). Described as above.
Chain of BRD3 (Q15059 2-726 limits assumed): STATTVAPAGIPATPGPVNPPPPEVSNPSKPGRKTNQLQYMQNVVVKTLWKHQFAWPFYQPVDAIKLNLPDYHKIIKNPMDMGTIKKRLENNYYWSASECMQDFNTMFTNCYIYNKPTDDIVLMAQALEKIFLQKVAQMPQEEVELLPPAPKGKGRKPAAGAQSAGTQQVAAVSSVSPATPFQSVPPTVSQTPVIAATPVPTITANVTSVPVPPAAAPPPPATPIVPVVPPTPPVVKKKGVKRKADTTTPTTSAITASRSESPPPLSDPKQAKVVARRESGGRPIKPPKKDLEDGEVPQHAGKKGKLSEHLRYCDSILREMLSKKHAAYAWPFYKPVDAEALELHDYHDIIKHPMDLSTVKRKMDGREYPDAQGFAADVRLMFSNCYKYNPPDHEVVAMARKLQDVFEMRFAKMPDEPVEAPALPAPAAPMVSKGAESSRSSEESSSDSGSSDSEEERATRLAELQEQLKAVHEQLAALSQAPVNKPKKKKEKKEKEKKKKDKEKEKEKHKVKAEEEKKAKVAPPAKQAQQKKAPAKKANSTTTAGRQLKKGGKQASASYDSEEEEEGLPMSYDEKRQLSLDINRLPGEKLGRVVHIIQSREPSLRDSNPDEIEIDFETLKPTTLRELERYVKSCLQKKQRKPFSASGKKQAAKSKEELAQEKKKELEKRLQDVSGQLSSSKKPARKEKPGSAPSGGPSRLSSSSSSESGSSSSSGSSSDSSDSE

Chain of BRD2 (P25440 whole entry): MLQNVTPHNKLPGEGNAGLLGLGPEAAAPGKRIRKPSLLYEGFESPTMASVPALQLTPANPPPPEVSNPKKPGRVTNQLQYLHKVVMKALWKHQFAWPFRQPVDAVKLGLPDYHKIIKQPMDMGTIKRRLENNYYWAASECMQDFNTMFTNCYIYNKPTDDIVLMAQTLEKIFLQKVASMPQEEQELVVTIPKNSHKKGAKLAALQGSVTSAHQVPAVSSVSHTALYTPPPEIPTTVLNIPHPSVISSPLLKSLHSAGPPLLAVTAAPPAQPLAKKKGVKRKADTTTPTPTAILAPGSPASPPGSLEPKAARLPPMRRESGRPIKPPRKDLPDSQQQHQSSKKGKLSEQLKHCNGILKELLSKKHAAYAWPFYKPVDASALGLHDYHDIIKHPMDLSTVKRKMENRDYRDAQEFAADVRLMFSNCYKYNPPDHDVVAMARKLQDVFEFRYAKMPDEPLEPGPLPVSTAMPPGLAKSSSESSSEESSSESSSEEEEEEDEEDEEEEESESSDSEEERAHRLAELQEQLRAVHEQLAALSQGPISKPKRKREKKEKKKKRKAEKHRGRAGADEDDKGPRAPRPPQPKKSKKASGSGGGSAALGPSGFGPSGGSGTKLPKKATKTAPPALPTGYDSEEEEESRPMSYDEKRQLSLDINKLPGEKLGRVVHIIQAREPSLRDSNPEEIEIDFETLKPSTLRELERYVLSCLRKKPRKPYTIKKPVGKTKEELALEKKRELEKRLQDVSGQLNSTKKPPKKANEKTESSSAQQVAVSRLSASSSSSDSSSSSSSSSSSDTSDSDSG
Procedure for BRD2: (§1) The expression of BirA* or miniTurbo fusion proteins were induced by a single addition of tetracycline stock (solved in ethanol) exposing the cells to its final concentration of 1 μg/μl in total for 4 days. 2 hours (miniTurbo lines) or 24 hours (BirA* lines) prior to cell harvesting, 50 μM biotin was added to the culture media. […] Upon treatment, cells were washed 3×times with PBS and harvested by trypsinization. For each sample, a pellet corresponding to 20 million cells was collected and snap-frozen in liquid nitrogen.
Procedure for BRD3: as §1

B1: PSMA4-miniTurbo-FLAG (other)
chain: MSRRYDSRTTIFSPEGRLYQVEYAMEAIGHAGTCLGILANDGVLLAAERRNIHKLLDEVFFSEKIYKLNEDMACSVAGITSDANVLTNELRLIAQRYLLQYQEPIPCEQLVTALCDIKQAYTQFGGKRPFGVSLLYIGWDKHYGFQLYQSDPSGNYGGWKATCIGNNSAAAVSMLKQDYKEGEMTLKSALALAIKVLNKTMDVSKLSAEKVEIATLTRENGKTVIRVLKQKEVEQLIKKHEEEEAKAEREKKEKEQKEKDKYPTFLYKVVDSRMASIPLLNAKQILGQLDGGSVAVLPVVDSTNQYLLDRIGELKSGDACIAEYQQAGRGSRGRKWFSPFGANLYLSMFWRLKRGPAAIGLGPVIGIVMAEALRKLGADKVRVKWPNDLYLQDRKLAGILVELAGITGDAAQIVIGAGINVAMRRVEESVVNQGWITLQEAGINLDRNTLAAMLIRELRAALELFEQEGLAPYLSRWEKLDNFINRPVKLIIGDKEIFGISRGIDKQGALLLEQDGVIKPWMGGEISLRSAEKLQDDYKDDDDK
notes: also called A4-mT; PSMA4_miniTurboID
Regarding B1, the binding result with BRD2 and with BRD3 was “binds” throughout.

For the origin of these results see patent US20260243776A1 (LEIBNIZ INSTITUT F R ALTERNSFORSCHUNG FRITZ LIPMANN …, published 2026).
